Results: article PMC11522559

How the values were obtained:
[1] = target: Alexa647-labeled microtubules (porcine brain tubulin), antiparallel overlaps (porcine) (UniProt P02550)
[2] = target: Alexa647-labeled microtubules (porcine brain tubulin), antiparallel overlaps (porcine) (UniProt P02550); remark: listed apart in the source

UniProt P02550, sequence (P02550 whole entry): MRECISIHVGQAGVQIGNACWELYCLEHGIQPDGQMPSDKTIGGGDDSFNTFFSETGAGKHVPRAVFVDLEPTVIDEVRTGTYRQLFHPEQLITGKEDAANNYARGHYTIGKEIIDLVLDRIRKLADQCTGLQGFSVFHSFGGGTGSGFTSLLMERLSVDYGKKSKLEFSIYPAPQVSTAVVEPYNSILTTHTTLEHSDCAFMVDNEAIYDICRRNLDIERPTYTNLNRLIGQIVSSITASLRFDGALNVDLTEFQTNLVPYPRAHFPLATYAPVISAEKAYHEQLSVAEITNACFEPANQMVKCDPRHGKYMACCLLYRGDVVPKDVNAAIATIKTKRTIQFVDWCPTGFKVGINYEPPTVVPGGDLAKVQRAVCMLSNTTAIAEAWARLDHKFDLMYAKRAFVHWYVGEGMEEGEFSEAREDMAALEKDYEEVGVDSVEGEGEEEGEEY

fold decrease of affinity against unphosphorylated PRC1 [1] [fold]	Kd [2] [nM]	Substance
> 10		CDK1-phosphorylated PRC1-Alexa546 (human PRC1 isoform 2) (from UniProt O43663-2 1-576) (natural protein)
	9.6	PLK1-phosphorylated PRC1-Alexa546 (human PRC1 isoform 2) (from UniProt O43663-4 1-606) (natural protein)
